Experimental findings from the nanobody polyreactivity screen of Harvey et al. (2022) are described below.

The nature of this data set: yeast display, Sf9 membrane polyspecificity reagent, FACS + sequencing; frameworks hold sequencing errors. The method, boiled down: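 After 36–48 hours of galactose induction, yeast (Saccharomyces cerevisiae BJ5465) displaying a synthetic nanobody library were stained at 4 °C for 1 hour with 10% biotinylated, detergent-solubilized Sf9 membrane reagent. Streptavidin microbeads enriched the stained cells before FACS sorting into low and high (top ~1%) gates on anti-HA and streptavidin fluorescence. Each clone's polyreactivity label reflects its gate of origin.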
With “QVQLQESGVGLVQAGGCLSCTASCTIFGQGDMCWYRQAPGKERELVATINDGASTYYADSVKGRFTISRDKAKNTVYLQMKSLKPDVTAVYYCAVFTDITTYFGYWGQGTQVTVSS”, the “polyreactivity (PSR sort gate)” value was “low polyreactivity”.

On to “QVQLLESGGGLVQAGGSLRLSCAASGTSAQEDWMGWYRQAPGKEREFVAAIGLGSHTNYADSLKGRFTISRDNAKNTVYLHMNSLKPEDTAVYYCAVSVWQYSDHVYRGQGTQVTVSS”, for which the “polyreactivity (PSR sort gate)” value is on record as “low polyreactivity”. The result for “QVQLVESGGGLVQAGGSLRLSCAASGSNFYVYAMGCYRQAPGKERELVAAINYDSGSTYYADSVKGRFTISRDTAKNTVYLQMNSLIPEDTAVYYCGTDGVNPFYAYDYWGQGTQVTVSS” reads “low polyreactivity”; that for “QVQLVETGGGLVQAGGSLRLSCAASGSIFQYYAMGSYRQAPGKERELVAAISSGGRTNYADSVKGRFTISRENAKNSVYLQMNSLKPEDTAVYYCAAARYYYQVYRWEYDYWGQGTQVTVSS”, “high polyreactivity”. The result for “QVQLVESGGALVQAGGSLRLSCAASGSTFAYYAMGWSRPAPGKERELVAAITRGGRTNYADSVKGRFTISRDNAKNTVYVQMNSLNREDTAVYYCAARSGRSWLTCSYDYWGQGTQVTVSS” reads “high polyreactivity”.

On to “QVQLVESGGGLVQAGGSLRLSCAASGGISSSNAMGWYRPAPGKERELVAGINSRGGSTYADSVKGRFTISRDNAKHTVYLQMNSLKPEDTAVYYCAAAPTFKWRRNNYDYWGQGTQVTVSS”, for which the “polyreactivity (PSR sort gate)” value was “high polyreactivity”. The result for “QVQLVETGGGLVQAGGSLRLSCAPSGSTFNSNVMGWYRQAPGKERELLAAISRSGGNTYYADSVKGRFTISRDNAKNTVYLQMNSLKQEDTAVYYCNVVFFSYYHGAYRGYDYWGQGTQVTVSS” reads “high polyreactivity”. For the sequence “QVQLVESGGGLVHAGGSLRLSCAASGFTFGYYALGWYRQAPGKERELVASISRSGGSTNYADSVKGRFTISRDNAKYTVYFQMNRLKPEDTAVYYCNKRVNTYRSGSRRYDYWGQGTQVTVSS”, the “polyreactivity (PSR sort gate)” value is listed as “high polyreactivity”.

On to “QVQLVESGGGLDQAGGSLRLICAASGFIFEYYAMGWYRQAPGKERELVASITSGGTTYYADSVKGRFTISRDNAKNTVYLQMNSLKPEDTAVDYCAAAWRIWWYHRGEFDYWGQGTQVTVSS”, for which the “polyreactivity (PSR sort gate)” value is recorded as “high polyreactivity”. The result for “QVQLVESGGGLVQAGGSLRLSCAASGFTLLPYAMGWYRQAPGKERELVAAISRRGVSTYYADSVKGRFTISRDNAKNTVYLQMNSLKPEDTAVYYCATRYFTGYGLRPQFYYWGQGSQVTVSS” reads “high polyreactivity”. The result for “QVQLVESGGGLVQAGGRLRLSCAASGRSFYSYTMGWYRQAPGKERELVAAIRKSGGRTYYADSVKGRFTISRDNAKNTVYLQMNSLKPEDTAVYYCATTNYELSYYYWGQGTQVTVSS” reads “high polyreactivity”; that for “QVQLVESGGGLFQAGGSLRLSCAASGSTLVKNAMGWYRQAPGKERELVAAIDYNDDITYYADSVKGRFTISRDTAKNTVYLQMNSLKPEDTAVYYCAAEPYAGPELDYWGQGTQVTVSS”, “high polyreactivity”. Turning to “QVQLVESGGGLVQAGASLRLSCAASGSIFYGNTMGWYRQAPGKERELVAAISSGGSTKYADSVKGRFTISRDNAKNTVYLQMNSLKPEDTAVYYCAADLPRYWVTWMDYWGQGTQVSVSS”, the “polyreactivity (PSR sort gate)” value is given as “low polyreactivity”.

Take “QVQLQESGGGLVQAGGSLRLSCAASGSISRLDYMGWYRQASGKERELVAAIDNGSTTYYADSVKGRLTISRDNAKYTVYLQMNSLKPADTAVYFCAAVRGRGGTHAYWGQGTQVTVSG”: the “polyreactivity (PSR sort gate)” value is reported as “low polyreactivity”. The result for “QVQLVESGGGLVQAGGSLRLSCAASGFTIWRYAMGWYRQAPGKERELVAAISWRGGSTYYADSVKGRFTISRDNAKNTVYLQMNSLKPEDTAVYYCAAAYNLPPGYDYWGLGTQVTVSS” reads “high polyreactivity”; that for “QVQLVESGGGLVQAGGSHRLSCAPSGRTYYMYAMGWYRPAPGKEREFVAAITSGGSRNYADSVKGRFTISRDNAKKTVYLQMNSLKPEDTAVYYWARYRGYWGRYYGVDYGYWGQGTQVTVSS”, “high polyreactivity”. Then “QVQLVESGRGLVQAGGSLRLSSAASGRIFPTNAMGWYRQAPGKERELVASIDSGDITHYADSVKGRFTISRDNAMNTVYLQMISLKPEDTAVYYCAKRPQAQYTYITGDDYWGQGTQVTVSS”, with “low polyreactivity”; and “QVQLVESGGGLVQAGGSLRLSCAASGRIFYHYAMGWYRQAPGKERELVAAITSSGAGTYYADSVKGRFTISRDNAKNTVYLPMNSLKPEDTAVYYCAARRYAWLHSYDMYYWGHGTQVTVSS”, with “high polyreactivity”. The result for “QVQLVESGGGLVQAGGSLRLSRAASGRTFRTYAMGWYRQAPGKERELVAAITSGGNTYYADSVKGRFTISRDNAKNTVYLLMNSLKPDDTAVYYCAAAASGFSRYRSTTWGQGTQGTVSS” reads “high polyreactivity”. With “QVQLVESGGGLVQAGGSLRLSCSASGSIFGFYAMGWYRQEPGKERELVAAIDSGDSTNYADSVKGRFTISRDNAKNTVYLQMNSLKPEDTAVYYCNARYTLFARYGYDYWGQGTQVTVSS”, the “polyreactivity (PSR sort gate)” value was “low polyreactivity”.

Take “QVQLVESGGGLVQAGGSLRLSCAASGRTFDGYAMGWSRQAPGKERELVAAINRSGGNTYYADSVKGRFTISRDNAKNTVYLQMNSLNPVDTAVYYCAADGWTSIGVPDYQHDYWGQGTQVTVSS”: the “polyreactivity (PSR sort gate)” value is on record as “high polyreactivity”. “QVQLVESGGGIVQAGGSLRLSCAASGRTLQIYAMGRYRQAPGKERELVAAISSSGGSTYYADSVKGRFTISRDNEKNTVYLQMNSLKPEDTAVYYCAVDGYGYKDDYWGQGTQVTVSS”: the “polyreactivity (PSR sort gate)” value was “high polyreactivity”. Then “QVQLVESWGGLVQAGGSLRLSCAASGFTFTRNAMGWYRQAPGKERELVAAISKSGGRTYYADSVKGRFTISRDNAKYNVYLQMNSLKPEDTAVYYCAVVPRPFGLGSDYDYWGQGTQVTVSS”, with “high polyreactivity”; and “QVQLEESGRGLVPAGGSLRLSCAASGFTFDYNTMGWYRQAPGKERELVAAISFRGTSTYYADSVKGRFTISRDNAKNTVYLQMNSLKREDTAVYYCATRDYHVPGRFYYWGQGTQVTVSS”, with “high polyreactivity”. The result for “QVQLVESGGGLVQAGGSLRLSCAASGSTFRTNAMGWYRQAPGKERELVAAISGNGGSTYYADSVKGRFTISRDNAKYNVYLQMNSLKAEDTAVYYCAARRGYRYYPPFGYWGQGTQVTVSS” reads “high polyreactivity”.

In the case of “QVQLVESGGGLVQAGCSLRLSCAASGFIFSRYTMGWYRQAPGKERELVAAISRRGGNTYYADSVKGRFTISRDNAKNTVYLQMNSLKPEDTAVYYCADEYNQSFDYWGQGTQVTVSS”, the “polyreactivity (PSR sort gate)” value is recorded as “low polyreactivity”. The result for “QVQLVESGGGLVQAGGSLRLSCAASGRIFWVYAMGWYRQAPGKERELVAAISLSGGLTYYADSVKGRFTITRDNAKNTVYLQMNSLKPEDTAVYYCNAVYPKRGGGRIVDYWGEGTQVTVSS” reads “high polyreactivity”; that for “QVQHVESGGGLVQAGGSLRLSCAPSGSTFYNNAMGWYRQAPGKERELVAAITRSGGSTYYADSVKGRFTISRDNAKNTVYLQMNSLKPEDTEVYYCNKYGYKGGVGYDYWGQGTQVTVSS”, “high polyreactivity”.

“QVQLVESGGGLVQAGGSLRLSCAASGSIFNSNAMGWYRQAPGKERELVATIRWSGGSTNYADSVKGRFTISRDNAKNTVYLQMNSLKPEDTAVYYCAVLPRGSNGMDYWGQGTQVTVSS”: the “polyreactivity (PSR sort gate)” value is “low polyreactivity”. The result for “QVQHVDSGGGLVQTGGSLLLSCAAYGRTFCVNDMGWYRQAAGKEREFVAAITWRGDSTYYADSVKGRFTISRDNAKNTVYLQMNSLKPEDSAVYYCNADVISLYDHPDYLYLFDYWGQGTQVTVSS” reads “low polyreactivity”. With “QVQLVESGGGLVQAGGSLRLSCAASGSTFTGYAMGWYRQAPGKERELVAAISISGGRTFYADSVKGRFTISRDNAKNTVYLQMNSLKPEDTAVYYCAAYLRGSKYSFDYWGQGTQVTVSS”, the “polyreactivity (PSR sort gate)” value is “high polyreactivity”.

Regarding “QVQLVESGGGLVQAGGSLRLSCAASGRTFRWYAMGRYRQAPGKERELVAVISRGGGSTTYADSVKGRFTISRDNAKNTVYLQMNSLKPEDTAVYYCAAQWSGSVGSRPMYYWGQGSQVTVSS”, the “polyreactivity (PSR sort gate)” value is given as “high polyreactivity”.

As for “QVQLVESGGGLVQAGGSLRLSCAASGFIFYQYAMGWYRQAPGKERELVAAISRRGGGTYYADSVKGRFTISRDNAKNTVYLQMNSLKPEDTAVYYCNTDRLARITFGGYDYWGQGTQVTVSS”, the “polyreactivity (PSR sort gate)” value is reported as “high polyreactivity”. Then “QVQLVESGGCLVQAGGSLRLSCDASGSTFPYYAMGWYRQAPGKERELVAAITLSGSSTYYTDSVKGRFTISRDNAKNTVYLQMNSLKPEDTAVYYCATRRVQWGYRYSYWRQGTQVTVSS”, with “high polyreactivity”; and “QVQLVESGGGLVQAGGILRLSCAASGRIFQHYPMGWYRQAPGKERELVAAISRSGDSTYYADSVKGRFTISRDNAKNTVYLQMNSLKPEDTAVYYCKIVRYSFLYDSWGQGTQVTVSS”, with “high polyreactivity”. Then “QGQLVESGGGLVQAGGSLRLSCAASGFTFDYYAMGWYRQAPGKARELVAAITTAASTNYADSVKGRFTISRDTAKNTVYFQMNSLKPEDTAVYYCAASWWPWYISWDDYWGQGTQVTVSS”, with “high polyreactivity”; and “QVQLVESGGGLVLAGGSLRLSCAASGSIFDDNAMGWYIQAPGKERELVAANTVSTDTTYYADSVKGRFTISRDIAKNTVSLLMNSLKPEDTAVYYCAAEGPGYGPTGDFYWYTYYYWGQGTQVTVSS”, with “low polyreactivity”; and “QVQLVESGGGLVQAGGSLRLSCAASGSTFLYNAMGWYRQAPGKERELVAAISWSGGSTYYADSVKGRFTISRDNAKNTVYLQMNSLKPEDTAVYYCNALSVPDYDYWGQGTQVTVSS”, with “high polyreactivity”. Consider “QVQLVESGGGLVQAGGSLRLSCAASGFIFVLYAMGWYRQAPRKERELVAAISRGGSSTYYADSVKGRFTISRDNAKNTVYLQMNSLKPEATAVYYCAARIRNWPAMDYWGQGTQVTVSS”, for which the “polyreactivity (PSR sort gate)” value is reported as “high polyreactivity”.

Consider “QVQLVESGGGLVQAGGSLRLSCAASGFTFAYYAMGWYRPAPGKERELVAAITSGGRTNYADSVKGRFTISRDNAKNTVYLQMNSMKPEDTAVYYFAKGYRRVYGPLYYWGQGTQVTVSS”, for which the “polyreactivity (PSR sort gate)” value was “low polyreactivity”. Then “QVQLVDSGGGLVQAGGSLRLSCAAYGSNLYYAMGWYIQAPGKERELVATITRGGSTYYADSVKGRFTISRDNAKNTVYLQMNSLKPEDTAVYYCAARRAVRVGYYWHDISSYDYWGQGTQVTVSS”, with “low polyreactivity”.
